In the supplement of paper PMC10567573:

B1: TRIM55 (parent)
chain: FQMEKIEHGYENMNHFTVNLNREE

Variants of: B1
Assay: protein stability index of a GFP-peptide fusion (GPS, HEK-293T) (PSI 1-6); higher = more stable
Details: c terminus: a fixed tail appended
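Also: lentivirally expressed fusions sorted by FACS into six bins by GFP to DsRed ratio, PSI derived from sequencing read proportions per bin multiplied by bin number.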

Protein stability index of substitutions, site by site:
T17: K 3.31 | C 2.49 | G 2.86 | A 2.59 | S 3.03 | Q 3.75 | F 1.74 | V 2.25 | W 1.93 | I 2.06 | L 2.31 | R 3.1 | M 2.77 | Y 1.92 | P 3.7 | N 3.76 | H 3.4 | D 4.07 | E 4.27
N12: W 1.83 | Q 2.51 | S 2.3 | V 2.04 | D 3.65 | F 2.17 | E 3.57 | I 1.94 | L 2.14 | R 2.34 | C 2.06 | P 2.37 | G 2.98 | K 2.44 | T 2.76 | H 2.38 | M 1.99 | Y 1.84 | A 2.19
M3: Q 3.41 | G 3.62 | P 2.91 | S 2.88 | R 2.66 | N 3.36 | F 2.86 | C 2.83 | W 2.11 | T 3.44 | K 2.68 | E 5.07 | Y 3.06 | V 2.8 | I 2.82 | L 2.82 | D 4.53 | H 3.43 | A 2.57
E7: N 2.3 | P 2.6 | V 1.85 | Y 2.1 | M 2.46 | C 2.42 | T 2.27 | I 2.42 | A 2.45 | R 2.05 | Q 2.73 | G 2.1 | D 2.63 | K 2.05 | W 2.65 | H 2.66 | F 1.44 | L 2.46 | S 2.34
H8: D 2.71 | G 2.37 | M 2.51 | S 3.02 | R 2.74 | V 3.03 | L 2.44 | Q 2.89 | K 2.84 | C 2.65 | I 2.21 | N 2.89 | E 3.51 | Y 3.03 | A 2.77 | W 2 | F 2.09 | T 2.73 | P 2.77
E4: M 1.73 | P 2.58 | D 2.76 | N 2.64 | G 2.45 | T 2.13 | K 2.37 | I 2.24 | A 2.5 | H 2.66 | Y 2.1 | V 1.8 | L 2.43 | F 1.58 | S 1.9 | R 2.19 | W 1.94 | C 2.16 | Q 2.42
K5: L 2.6 | P 3.55 | A 2.9 | T 3.08 | W 2.41 | S 3.43 | Q 3.51 | F 1.7 | G 2.93 | V 2.49 | E 4.2 | I 2.24 | C 3.14 | D 4.14 | N 3.54 | Y 2.16 | H 2.61 | M 2.83 | R 2.68
I6: W 2.06 | A 3.27 | Y 2.97 | N 2.87 | S 3.18 | K 3.07 | E 4.13 | F 2.15 | R 2.6 | G 2.66 | V 3 | L 3.44 | M 2.84 | H 3.24 | C 2.64 | P 3.32 | Q 3.32 | D 3.25 | T 2.87
Y10: F 3.02 | C 2.74 | V 3.35 | A 3.55 | W 2.42 | K 2.82 | P 3.63 | E 3.74 | M 3.31 | H 2.94 | L 3.08 | Q 3.37 | R 3.18 | S 3.44 | D 3.31 | G 3.31 | I 3.14 | T 3.1 | N 3.27
N14: G 3.21 | H 1.69 | I 1.98 | Q 3.11 | V 2.15 | S 2.68 | R 2.86 | D 3.45 | C 2.29 | L 2.29 | Y 3.78 | M 2.29 | K 2.99 | F 2.53 | A 3.17 | T 2.69 | P 2.79 | E 4.16
V18: T 3.86 | E 3.61 | Y 2.39 | L 3.08 | H 3.66 | S 3.77 | P 2.11 | I 2.94 | A 3.24 | Q 4.15 | N 3.52 | D 3.94 | K 3.27 | F 3.21 | C 2.03 | M 3.49 | W 1.69 | R 3.73 | G 3.74
Q2: M 3.42 | F 2.69 | T 3.35 | S 3.98 | N 3.8 | R 3.07 | D 4.1 | K 3.49 | I 2.06 | W 2.62 | Y 2.52 | G 3.7 | E 4.49 | L 2.96 | P 3.86 | H 2.28 | A 3.14 | C 2.57
H15: K 3.15 | V 1.76 | D 3.97 | I 1.99 | P 1.5 | Y 1.82 | A 2.1 | E 3.62 | R 3.12 | C 2.22 | F 2.14 | M 1.95 | L 1.8 | W 1.98 | T 2.76 | S 3.14 | G 3.72 | Q 3.57 | N 3.77
M13: L 2.61 | F 2.82 | H 3.13 | K 2.87 | R 2.68 | I 2.52 | Q 3.33 | Y 2.38 | S 3.04 | C 2.93 | T 3.36 | N 3.81 | P 3.51 | G 3.75 | D 3.79 | W 2.12 | E 3.67 | V 2.46 | A 3.23
F1: T 4.67 | V 4.19 | Y 3.3 | W 3.78
F16: A 4.17 | K 4.52 | M 3.87 | H 4.09 | Q 4.23 | V 4.01 | G 4.23 | E 4.5 | T 4.36 | I 3.65 | W 1.96 | D 4.71 | R 4.25 | L 4.21 | Y 3.29 | N 4.31 | C 4.06 | P 4.4 | S 4.41
G9: N 3.26 | K 2.81 | L 2.94 | A 3.63 | R 2.91 | Y 2.11 | I 2.4 | C 2.33 | V 3.03 | P 2.93 | E 3.38 | M 2.45 | T 3.07 | S 3.21 | F 2.34 | H 3.22 | Q 3.05 | W 3.05 | D 3.9
E11: V 1.97 | R 2.15 | Q 2.18 | I 2.31 | G 2.14 | M 1.98 | C 1.56 | L 1.81 | H 1.95 | S 2.59 | A 1.82 | P 2.07 | Y 2.08 | W 2.35 | F 2.04 | N 2.16 | D 2.55 | T 2.42 | K 2.42
N19: H 2.24 | C 2.65 | G 2.72 | K 2.47 | F 2.29 | A 3.17 | E 3.28 | I 2.05 | D 3.37
